How the values were obtained:
[1] = target: T1, Human angiopoietin-2 (ANG-2) with His-tag (human, UniProt O15123 19-496); assay: Biacore SPR, antibody captured by anti-Fc, ANG-2-His in solution, 1:1 model, Experiment 1
T1 construct: The assays used full-length Angiopoietin-2-His, either R&D Systems #623-AN or in-house material; also called hANG-2; hAng-2
T1 sequence: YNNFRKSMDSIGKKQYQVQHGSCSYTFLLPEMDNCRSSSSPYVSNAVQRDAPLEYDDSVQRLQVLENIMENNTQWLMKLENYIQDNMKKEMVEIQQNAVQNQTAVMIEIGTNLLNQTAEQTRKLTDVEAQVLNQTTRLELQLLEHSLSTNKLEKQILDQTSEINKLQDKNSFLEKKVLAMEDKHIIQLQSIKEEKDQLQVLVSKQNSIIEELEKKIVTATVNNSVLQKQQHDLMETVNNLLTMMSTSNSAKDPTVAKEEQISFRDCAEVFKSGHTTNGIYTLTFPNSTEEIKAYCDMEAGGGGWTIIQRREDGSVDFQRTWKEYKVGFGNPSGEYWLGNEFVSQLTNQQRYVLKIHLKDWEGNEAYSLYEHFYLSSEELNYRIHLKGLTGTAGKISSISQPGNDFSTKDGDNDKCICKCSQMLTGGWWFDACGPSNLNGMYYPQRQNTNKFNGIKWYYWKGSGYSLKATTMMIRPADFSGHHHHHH
Experimental: (§1) Biacore® T100 Evaluation Software version 1.1.1 was used for analysis of sensorgrams and for calculation of affinity data.
(§2) The affinity for this interaction is determined with the assumption of a 1:1 interaction. Details of this experiment can be found in the general methods section.

[2] = target: T2, Human angiopoietin-1 (ANG-1) with His-tag (human, UniProt Q15389 16-498); assay: ANG-1 binding ELISA, human ANG-1 coated, antibody titrated
T2 construct: The assays used Angiopoietin-1-His, either R&D Systems #923-AN or in-house material; also called hANG-1; huAng-1
T2 sequence: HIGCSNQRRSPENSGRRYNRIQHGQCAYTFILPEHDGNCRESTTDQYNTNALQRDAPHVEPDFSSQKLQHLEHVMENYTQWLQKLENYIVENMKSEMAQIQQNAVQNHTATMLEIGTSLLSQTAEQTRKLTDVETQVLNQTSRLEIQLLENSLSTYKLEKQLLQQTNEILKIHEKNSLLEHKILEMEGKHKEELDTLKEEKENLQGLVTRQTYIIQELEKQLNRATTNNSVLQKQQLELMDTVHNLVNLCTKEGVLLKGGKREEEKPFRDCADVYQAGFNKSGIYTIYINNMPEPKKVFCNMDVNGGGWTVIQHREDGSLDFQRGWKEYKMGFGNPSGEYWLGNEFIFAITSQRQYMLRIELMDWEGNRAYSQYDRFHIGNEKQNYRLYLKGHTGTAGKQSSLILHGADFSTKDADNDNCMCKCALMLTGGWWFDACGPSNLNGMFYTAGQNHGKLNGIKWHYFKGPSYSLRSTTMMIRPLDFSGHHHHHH
Experimental: (§3) The wells were washed three times with 300 μl PBST (0.2% Tween® 20) and blocked with 200 μl 2% BSA 0.1% Tween® 20 for 30 min at room temperature and subsequently washed three times with 300 μl PBST. […] The wells were washed three times with 300 μl PBST (0.2% Tween® 20) and bound antibody was detected with 100 μL/well 0.1 μg/ml F(ab′) POD (Biozol Cat. No. 206005) in 2% BSA 0.1% Tween® 20 as detection antibody for 1 h on a microtiterplate shaker at room temperature. Unbound detection antibody was washed away three times with 300 μL/well PBST and the bound detection antibody was detected by addition of 100 μL ABTS/well. Determination of absorbance was performed on a Tecan Fluor Spectrometer at a measurement wavelength of 405 nm (reference wavelength 492 nm).
(§4) Briefly, the ELISA-type assay is based on the immobilization of human wild-type Angiopoietin-1 or -2 in a microtiter plate.

[3] = target: T1, Human angiopoietin-2 (ANG-2) with …; assay: ANG-2 binding ELISA, human ANG-2 coated, antibody titrated
Experimental: as §3, §4

[4] = target: T1, Human angiopoietin-2 (ANG-2) with …; assay: ANGPT2/Tie2 interaction ELISA: antibody titrated with 0.2 ug/ml huAngiopoietin-2 on coated Tie2 (printed as 'inhibitory concentrations')
Experimental: The interaction ELISA was performed on 384 well microtiter plates (MicroCoat, DE, Cat. No. 464718) at RT. After each incubation step plates were washed 3 times with PBST. ELISA plates were coated with 0.5 μg/ml Tie-2 protein (R&D Systems, UK, Cat. No. 313-TI) for at least 2 hours (h). Thereafter the wells were blocked with PBS supplemented with 0.2% Tween® 20 and 2% BSA (Roche Diagnostics GmbH, DE) for 1 h. […] After washing a mixture of 0.5 μg/ml biotinylated anti-Angiopoietin-2 clone BAM0981 (R&D Systems, UK) and 1:3000 diluted streptavidin HRP (Roche Diagnostics GmbH, DE, Cat. No. 11089153001) was added for 1 h. Thereafter the plates were washed 6 times with PBST. Plates were developed with freshly prepared ABTS reagent (Roche Diagnostics GmbH, DE, buffer #204 530 001, tablets #11 112 422 001) for 30 minutes at RT. Absorbance was measured at 405 nm.
(§5) 384-well Maxisorp® plates (Nunc) were coated with 0.5 μg/ml human Tie2 (R&D Systems, UK, Cat. No. 313-TI or in house produced material) for 2 h at room temperature and blocked with PBS supplemented with 0.2% Tween® 20 and 2% BSA (Roche Diagnostics GmbH, DE) for 1 h at room temperature under shaking. […] After washing a mixture of 0.5 μg/ml biotinylated anti-Angiopoietin-1/2 clone (R&D Systems #BAF923, BAM0981 R&D Systems, UK) and 1:3000 diluted streptavidin HRP (Roche Diagnostics GmbH, DE, Cat. No. 11089153001) was added for 1 h. Thereafter the plates were washed 6 times with PBST. Plates were developed with freshly prepared ABTS reagent (Roche Diagnostics GmbH, DE, buffer #204 530 001, tablets #11 112 422 001) for 30 minutes at RT. Absorbance was measured at 405 nm.

[5] = target: T1, Human angiopoietin-2 (ANG-2) with …; assay: Biacore SPR, antibody captured by anti-Fc, ANG-2-His in solution, 1:1 model, Experiment 2
Experimental: as §1, §2

[6] = target: T1, Human angiopoietin-2 (ANG-2) with …; assay: Biacore SPR, antibody captured by anti-Fc, ANG-2-His in solution, 1:1 model, average of Experiments 1 + 2
Experimental: as §1, §2

[7] = target: T2, Human angiopoietin-1 (ANG-1) with …; assay: SPR (Biacore): huAng-1 amine-coupled on a CM5 chip (appr. 20000 RU), BSA on the reference cell, antibody 100 nM in HBS-P injected for 3 min, 3 min dissociation
Experimental: The protein was injected for 20 min in sodium acetate pH 4.5 at 10 μg/ml at a flow rate of 5 μl/min. […] On the reference flow cell BSA was immobilized under the same conditions. The antibodies were diluted in HBS-P to 100 nM and injected for 3 min (association phase). After washing with running buffer for 3 min (dissociation phase), the surface was regenerated by injecting 10 mM sodium hydroxide for 1 min at 5 μl/min.

[8] = target: T2, Human angiopoietin-1 (ANG-1) with …; assay: ANGPT1/Tie2 interaction ELISA: antibody titrated with 0.2 ug/ml huAngiopoietin-1 on coated Tie2 (printed as 'inhibitory concentrations')
Experimental: After each incubation step plates were washed 3 times with PBST. […] Thereafter the wells were blocked with PBS supplemented with 0.2% Tween® 20 and 2% BSA (Roche Diagnostics GmbH, DE) for 1 h. […] Thereafter the plates were washed 6 times with PBST. Plates were developed with freshly prepared ABTS reagent (Roche Diagnostics GmbH, DE, buffer #204 530 001, tablets #11 112 422 001) for 30 minutes at RT. Absorbance was measured at 405 nm.
as §5

[9] = target: T2, Human angiopoietin-1 (ANG-1) with …; assay: cell-based or functional assay
[10] = target: T1, Human angiopoietin-2 (ANG-2) with …; assay: cell-based or functional assay

B1: human anti-ANG-2 antibody <ANG-2> antibody Mab536 (antibody, V domains shown)
VH: EVQLVQSGGGVVQPGRSLRLSCAASGFTFSSYGMHWVRQAPGKGLEWVSYISSSGSTIYYADSVKGRFTISRDNAKNSLYLQMNSLRAEDTAVYYCARDLLDYDILTGYGYWGQGTLVTVSS
VL: not shown
**Q.** How did the Kd [1] turn out when B1 was run?
**A.** 29 pM

**Q.** What about the koff [1] of the same binder?
**A.** 0.000144 s⁻¹

**Q.** What about the EC50 [2] of the same binder?
**A.** 2.54 µg/mL

**Q.** And the EC50 [3]?
**A.** 0.133 µg/mL

**Q.** And the IC50 [4]?
**A.** 150 pM

**Q.** And the Kd [5]?
**A.** 29 pM

**Q.** What about the koff [5] of the same binder?
**A.** 0.000125 s⁻¹

**Q.** And the Kd [6]?
**A.** 29 pM

B2: <ANG-2> Ang2i_LC07 (antibody, V domains shown)
VH: not shown
VL: QPVLTQSPSVSVAPGETARVACGGNFIGGKSVHWYQQKPGQAPVLVIYDDSERPSGIPERISGSNSGNTATLIITRAEAGDEADYHCQVWDSDSDQGVFGTGTKLTVLG
notes: Only the variable domains are tied to this antibody
**Q.** How did the EC50 [2] turn out when B2 was run?
**A.** > 8 µg/mL

**Q.** What about the EC50 [3] of the same binder?
**A.** 3.01 µg/mL

B3: <ANG-2> Ang2i_LC10 (antibody, V domains shown)
VH: not shown
VL: QPPSVSVAPGQTARITCGGNNIGSKSVHWYQQKPGQAPVLVVYDDSDRPSGIPERFSGSNSGNTATLTISRVEAGDEADYYCQVWDSSSDHWVFGGGTKLTVLG
**Q.** Does B3 bind [7]?
**A.** no binding (tested: 100 nM)

B4: <ANG-2> Ang2k_LC08 (antibody, V domains shown)
VH: QVQLVESGGGVVQPGGSLRLSCAASGFTFSSYGMHWVRQAPGKGLEWVAVISYDGSNKYYADSVKGRFTISRDNSKNTLYLQMNSLRAEDTAVYYCAKPTLDIYMGYYYGMDVWGQGTTVTVSS
VL: QPVLTQPPSASGAPGQRVTISCSGFASNIGSNSVNWYQQVPGTAPKLLIYNNDQRPSGVPDRFSGSRSGTSASLAISGLQSEDEADYYCAAWDDSLNGPVFGGGTKLTVLG
notes: as for B2
**Q.** B4 was tested. Which Kd [1] did it give?
**A.** 16 pM

**Q.** What about the koff [1] of the same binder?
**A.** 0.000161 s⁻¹

**Q.** What about the IC50 [8] of the same binder?
**A.** 11000 pM

**Q.** What about the EC50 [2] of the same binder?
**A.** 4.04 µg/mL

**Q.** What about the EC50 [3] of the same binder?
**A.** 0.105 µg/mL

**Q.** What about the IC50 [4] of the same binder?
**A.** 170 pM

**Q.** What about the “IC50 of ANGPT1 stimulated Tie2 phosphorylation (HEK293-Tie2 clone22, P-Tie2 sandwich ELISA)” value [9] of the same binder?
**A.** ~0.391 µg/mL

**Q.** What about the “IC50 of ANGPT2 stimulated Tie2 phosphorylation (HEK293-Tie2 clone22, P-Tie2 sandwich ELISA)” value [10] of the same binder?
**A.** ~0.499 µg/mL

**Q.** What about the Kd [5] of the same binder?
**A.** 27 pM

**Q.** What about the koff [5] of the same binder?
**A.** 0.000228 s⁻¹

**Q.** And the Kd [6]?
**A.** 22 pM

B5: <ANG-2> Ang2i_LC06 (antibody, V domains shown)
VH: not shown
VL: QPGLTQPPSVSVAPGQTARITCGGNNIGSKSVHWYQQKPGQAPVLVVYDDSDRPSGIPERFSGSNSGNTATLTISRVEAGDEADYYCQVWDSSSDHYVFGTGTKVTVLG
notes: as for B2
**Q.** For B5, which Kd [1] is on record?
**A.** 11 pM

**Q.** And the koff [1]?
**A.** 7.16e-05 s⁻¹

**Q.** And the EC50 [2]?
**A.** > 8 µg/mL

**Q.** What about the EC50 [3] of the same binder?
**A.** 0.084 µg/mL

**Q.** And the IC50 [4]?
**A.** 100 pM

**Q.** And the “IC50 of ANGPT2 stimulated Tie2 phosphorylation (HEK293-Tie2 clone22, P-Tie2 sandwich ELISA)” value [10]?
**A.** ~0.508 µg/mL

**Q.** And the Kd [5]?
**A.** 21 pM

**Q.** What about the koff [5] of the same binder?
**A.** 0.000114 s⁻¹

**Q.** And the Kd [6]?
**A.** 16 pM

— US20180282404A1 (Hoffmann-La Roche, published 2018)
